From paper PMC2671166, “Site Directed Mutagenesis of Amino Acid Residues at the Active Site of Mouse Aldehyde Oxidase AOX1” (PLoS ONE, 2009)

Target: the molecule itself
Assay: SEC; purified mAOX1; single peak with an approximate molecular mass of 300 kDa; data not shown

B1: Mouse aldehyde oxidase AOX1 (recombinant, wild-type) (enzyme, UniProt O54754 1-1333, looked up)
chain: MDPIQLLFYVNGQKVVEKNVDPEMMLLPYLRKNLRLTGTKYGCGGGGCGACTVMISRYNPSTKAIRHHPVNACLTPICSLHGTAVTTVEGLGNTRTRLHPIQERIAKCHGTQCGFCTPGMVMSMYALLRNHPEPTLDQLTDALGGNLCRCTGYRPIIDACKTFCKASACCQSKENGVCCLDQEINGLAESQEEDKTSPELFSEEEFLPLDPTQELIFPPELMRIAEKQPPKTRVFYGERVTWISPVTLKELVEAKFKYPQAPIVMGYTSVGPEVKFKGVFHPIIISPDRIEELGVISQARDGLTLGAGLSLDQVKDILADIVQKLPEEKTQTYRALLKHLRTLAGSQIRNMASLGGHIVSRHLDSDLNPLLAVGNCTLNLLSKDGERRIPLSEEFLRKCPEADLKPQEVLVSVNIPWSRKWEFVSAFRQAQRQQNALAIVNSGMRVLFREGGGVIEELSILYGGVGSTIISAKNSCQRLIGRPWNEGMLDTRCRLVLDEVTLAASAPGGKVEFKRTLIISFLFKFYLEVSQGLKREDPGHSPSLAGNHESALDDLHSKHPWRTLTHQNVDPAQLPQDPIGRPIMHLSGIKHATGEAIYCDDMPAVDRELFLTFVTSSRAHAKIVSIDLSEALSLPGVVDIITADHLQEANTFGTETFLATDEVHCVGHLVCAVIADSETRAKQAAKQVKVVYQDLAPLILTIEEAIQHKSFFKSERKLECGNVDEAFKIVDQILEGEIHIGGQEHFYMETQSMLVVPKGEDGEIDIYVSTQFPKYIQDIVAATLKLSANKVMCHVRRVGGAFGGKVGKTSILAAITAFAASKHGRAVRCILERGEDMLITGGRHPYLGKYKAGFMNEGRILALDVEHYCNGGCSLDESLWVIEMGLLKLDNAYKFPNLRCRGWACRTNLPSNTALRGFGFPQAGLVTEACITEVAIKCGLSPEQVRTINMYKHVDTTHYKQEFSAKALSECWRECMAKCSYFERKAAIGKFNAENSWKKRGMAVIPLKFPVGIGSVAMGQAAALVHIYLDGSALVSHGGIEMGQGVHTKMIQVVSRELRMPMSSVHLRGTSTETVPNTNASGGSVVADLNGLAVKDACQTLLKRLEPIISKNPQGTWKDWAQTAFDQSISLSAVGYFRGYESNIDWEKGEGHPFEYFVFGAACSEVEINCLTGDHKNIRTNIVMDVGHSINPALDIGQVEGAFIQGMGLYTIEELSYSPQGTLYSRGPNQYKIPAICDIPTEMHISFLPPSEHSNTLYSSKGLGESGVFLGCSVFFAIHDAVKAARQERGISGPWKLNSPLTPEKIRMACEDKFTKMIPRDEPGSYVPCNIPV
notes: mouse aldehyde oxidase AOX1, cDNA cloned from mouse CD1 liver into the NdeI-SalI sites of pTrcHis (plasmid pSL205); band of 150 kDa on SDS-PAGE; Holds Moco, two [2Fe-2S] clusters and FAD as cofactors; also called mAOX1; mAOX1-WT; source: E. coli TP1000, coexpressed with mMCSF, purified (Ni-NTA, Superose 12, benzamidine sepharose)
stoichiometry N: 2
